B1: MOR024354 (antibody, V domains shown)
VH: QVQLLESGGGLVQPGGSLRLSCAASGFTFSSFGMSWVRQAPGKGLEWVSAISYSGSDTYYADSVKGRFTISRDNSKNTLYLQMNSLRAEDTAVYYCARDVGVMDYWGQGTLVTVSS
VL: SYELTQPLSVSVALGQTARITCSGDNLGTYYAHWYQQKPGQAPVLVIYSQSHRPSGIPERFSGSNSGNTATLTISRAQAGDEADYYCGAWDAPSPELVFGGGTKLTVL
B2: Y010903 (antibody, V domains shown)
VH: EVQLVESGGGLVKPGGSLRLSCAASGFTFSNAWMSWVRQAPGKGLEWVGRIKSKTDAGTTDYAAPVKGRFTISRDDSKNTLYLQMNSLKTEDTAVYYCARASHRLHSLFDVWGQGTLVTVSS
VL: DIQMTQSPSTLSASVGDRVTITCRASQSISSWLAWYQQKPGKAPKLLIYDASSLESGVPSRFSGSGSGTEFTLTISSLQPEDFATYYCQQGLFYPHTFGQGTKVEIK
B3: Y010900 (antibody, V domains shown)
VH: EVQLVESGGGLVKPGGSLRLSCAASGFTFSNAWMSWVRQAPGKGLEWVGRIKSKTDAGTTDYAAPVKGRFTISRDDSKNTLYLQMNSLKTEDTAVYYCARTIYPSAPSSSLDYWGQGTLVTVSS
VL: DIQMTQSPSSLSASVGDRVTITCRASQGISNYLAWYQQKPGKVPKLLIYAASTLQSGVPSRFSGSGSGTDFTLTISSLQPEDVATYYCQQLIFFPLTFGQGTKVEIK
B4: Y010910 (antibody, V domains shown)
VH: EVQLVESGGGLVKPGGSLRLSCAASGFTFSNAWMSWVRQAPGKGLEWVGRIKSKTDAGTTDYAAPVKGRFTISRDDSKNTLYLQMNSLKTEDTAVYYCARVASPSAPGGFDYWGQGTLVTVSS
VL: DIQMTQSPSSLSASVGDRVTITCRASQGISNYLAWYQQKPGKVPKLLIYAASTLQSGVPSRFSGSGSGTDFTLTISSLQPEDVATYYCQQSLFAPFTFGQGTKVEIK
B5: Y010906 (antibody, V domains shown)
VH: EVQLVESGGGLVKPGGSLRLSCAASGFTFSNAWMSWVRQAPGKGLEWVGRIKSKTDAGTTDYAAPVKGRFTISRDDSKNTLYLQMNSLKTEDTAVYYCARDEYPWGWFDVWGQGTLVTVSS
VL: DIQMTQSPSSVSASVGDRVTITCRASQGISSWLAWYQQKPGKAPKLLIYAASSLQSGVPSRFSGSGSGTDFTLTISSLQPEDFATYYCQQYIFYPLTFGQGTKVEIK
B6: Y010355 (antibody, V domains shown)
VH: EVQLVESGGGLVKPGGSLRLSCAASGFTFSNYWISWVRQAPGKGLEWVGRIKSKTYGGTTDYAEPVKGRFTISRDDSKNTLYLQMNSLKTEDTAVYYCARTSRRSYAFDYWGQGTLVTVSS
VL: DIQMTQSPSTLSASVGDRVTITCRASQSISSWLAWYQQKPGKAPKLLIYDASSLESGVPSRFSGSGSGTEFTLTISSLQPEDFATYYCQQITRYPVTFGQGTKVEIK
B7: Y010356 (antibody, V domains shown)
VH: EVQLVESGGGLVKPGGSLRLSCAASGFTFSNYWISWVRQAPGKGLEWVGRIKSKTYGGTTDYAEPVKGRFTISRDDSKNTLYLQMNSLKTEDTAVYYCARVSGYYSHSGGFDVWGQGTLVTVSS
VL: DIQMTQSPSSLSASVGDRVTITCRASQGISNYLAWYQQKPGKVPKLLIYAASTLQSGVPSRFSGSGSGTDFTLTISSLQPEDVATYYCQKTWRTPGTFGQGTKVEIK
B8: Y010417 (antibody, V domains shown)
VH: EVQLVQSGAEVKKPGESLKISCKGSGYSFTSYWIGWVRQMPGKGLEWMGIIYPGDSDTRYSPSFQGQVTISADKSISTAYLQWSSLKASDTAMYYCARGSSAASGLSGDLWGQGTLVTVSS
VL: DIQMTQSPSSLSASVGDRVTITCRASQSISSYLNWYQQKPGKAPKLLIYAASSLQSGVPSRFSGSGSGTDFTLTISSLQPEDFATYYCQQDYYSPFTFGQGTKVEIK

human PMEL17 (human), sequence (P40967 25-661): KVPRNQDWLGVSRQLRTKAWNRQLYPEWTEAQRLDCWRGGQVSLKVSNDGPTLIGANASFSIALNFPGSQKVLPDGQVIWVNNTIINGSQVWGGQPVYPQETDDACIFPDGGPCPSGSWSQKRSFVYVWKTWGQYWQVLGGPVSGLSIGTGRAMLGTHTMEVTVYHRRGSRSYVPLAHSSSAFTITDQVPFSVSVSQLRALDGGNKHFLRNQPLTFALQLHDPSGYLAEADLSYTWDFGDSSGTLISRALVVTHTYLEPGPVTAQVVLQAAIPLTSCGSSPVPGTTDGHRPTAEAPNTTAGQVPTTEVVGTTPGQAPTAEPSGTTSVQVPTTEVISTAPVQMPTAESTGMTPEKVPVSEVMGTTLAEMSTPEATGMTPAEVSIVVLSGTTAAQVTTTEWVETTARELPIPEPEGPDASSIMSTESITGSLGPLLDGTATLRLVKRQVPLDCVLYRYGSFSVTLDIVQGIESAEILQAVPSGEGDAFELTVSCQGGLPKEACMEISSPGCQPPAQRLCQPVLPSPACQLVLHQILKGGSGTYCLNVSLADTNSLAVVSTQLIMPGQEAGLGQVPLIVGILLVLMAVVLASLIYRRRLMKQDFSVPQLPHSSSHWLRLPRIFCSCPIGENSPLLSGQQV

The first assay concerns the target human PMEL17 (human) (UniProt P40967). Kind of assay: FACS titration of IgG on G-361 cells (human melanoma), Alexa Fluor detection antibody.
For B1, the concentration giving a half-maximal response (EC50) (commonly the midpoint of the concentration-response curve) amounted to 1.7 nM.

Consider B2, for which the EC50 was 3.2 nM.

Turning to B3, the EC50 stood at 1.3 nM.

Turning to B4, the EC50 worked out at 10 nM.

The molecule B5 showed an EC50 of 2 nM.

Another assay shares this target. The assay can be described thus: FACS titration of IgG on G-361 cells (human melanoma), PE detection antibody.
With B6, the EC50 worked out at 0.5 nM.

In turn, B7 came in with an EC50 of 1.6 nM.

B8 yielded an EC50 of 2.8 nM.

Source of the values: US20240189439A1.
